This is an account of results in US20260347455 (published 2026).

Assay [1] concerns the target T1, human BMP6 (Peprotech 120-06) (human).
T1 chain: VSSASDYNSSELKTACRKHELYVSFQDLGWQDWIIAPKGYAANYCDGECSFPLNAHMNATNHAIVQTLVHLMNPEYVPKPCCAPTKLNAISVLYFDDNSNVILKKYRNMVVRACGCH
The experiment in a line: SPR, 37C, pH 7.6.

Assay [2] has as its target T1, human BMP6 (Peprotech 120-06). The experiment in a line: SPR, 37C, pH 7.6, bivalent (relative KD).

B1: CL-58838 Fab (antibody, V domains shown)
VH: QVQLVESGGGLVKPGGSLRLSCAASGFTFSDYYMSWIRQAPGKGLEWVSYISISGSTIYYADSVKGRFTISRDNAMDSLYLQMNSLRAEDTAVYYCARRSSGWYDYWGQGTLVTVSS
VL: EIVLTQSPGTLSLSPGERATLSCWASQRVVYRYLAWYQRKPGQAPRLLIYGAFNRATGIPDRFSGSGSGTDFSLTISRLEPEDFAVYYCHQYGSSPPTFGQGTKVEIK
B1 showed a Kd in assay [1] of 140 pM.

B2: CL-58838 IgG4 (antibody, V domains shown)
VH: B1 VH
VL: EIVLTQSPGTLSLSPGERATLSCWASQRVVYRYLAWYQRKPGQAPRLLIYGAFNRATGIPDRFSGSGSGTDFSLTISRLEPEDFAVYYCHQYGSSPPTFGQGTKVEIKR
In assay [2], B2 displayed a Kd of 70 pM.
